Reference: patent US20250289897A1 (Eli Lilly, published 2025)

Legend:
[1] = target: T1, human LEPR, full length, on HEK293-STAT3Luc-hLepR1 cells (Homo sapiens, UniProt P48357 22-1165); assay: flow cytometry on live HEK293-STAT3Luc-hLepR1 cells, AF647 anti-human IgG; average of 4 runs, SD 1.0
T1 construct: also called human LEPR on live cell surface
T1 sequence: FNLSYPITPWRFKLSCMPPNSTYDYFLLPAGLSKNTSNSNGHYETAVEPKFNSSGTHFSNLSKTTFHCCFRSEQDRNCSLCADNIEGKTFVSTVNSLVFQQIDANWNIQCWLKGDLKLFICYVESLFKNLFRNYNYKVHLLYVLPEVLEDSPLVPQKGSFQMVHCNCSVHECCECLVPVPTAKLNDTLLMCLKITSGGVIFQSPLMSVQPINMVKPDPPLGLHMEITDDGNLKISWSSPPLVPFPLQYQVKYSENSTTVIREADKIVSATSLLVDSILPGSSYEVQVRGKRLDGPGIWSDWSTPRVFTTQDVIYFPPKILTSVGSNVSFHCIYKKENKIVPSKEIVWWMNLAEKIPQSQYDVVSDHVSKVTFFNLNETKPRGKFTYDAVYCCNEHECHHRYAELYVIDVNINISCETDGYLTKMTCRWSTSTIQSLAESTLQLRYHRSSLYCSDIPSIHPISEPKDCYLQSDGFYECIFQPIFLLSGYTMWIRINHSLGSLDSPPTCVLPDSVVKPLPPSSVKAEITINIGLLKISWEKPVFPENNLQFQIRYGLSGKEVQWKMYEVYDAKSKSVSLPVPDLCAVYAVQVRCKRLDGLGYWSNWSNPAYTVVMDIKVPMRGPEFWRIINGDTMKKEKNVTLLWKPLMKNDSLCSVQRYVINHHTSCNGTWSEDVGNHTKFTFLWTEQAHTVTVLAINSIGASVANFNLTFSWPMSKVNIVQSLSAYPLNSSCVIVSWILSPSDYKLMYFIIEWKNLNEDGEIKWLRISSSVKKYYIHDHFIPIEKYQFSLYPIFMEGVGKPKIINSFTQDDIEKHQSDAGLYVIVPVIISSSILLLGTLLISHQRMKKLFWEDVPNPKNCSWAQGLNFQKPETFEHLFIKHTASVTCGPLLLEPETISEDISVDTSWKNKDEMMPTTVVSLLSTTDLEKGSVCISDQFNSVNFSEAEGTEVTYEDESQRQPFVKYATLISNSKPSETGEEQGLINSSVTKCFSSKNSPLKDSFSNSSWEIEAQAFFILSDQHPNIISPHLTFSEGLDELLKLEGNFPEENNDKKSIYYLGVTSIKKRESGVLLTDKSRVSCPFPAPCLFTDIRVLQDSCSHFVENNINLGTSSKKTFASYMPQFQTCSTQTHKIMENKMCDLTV
Description: Cells were incubated in blocking buffer for 10 mins at room temperature. After one rinse with PBS, cells were transferred to U-bottom 96-well plate at 200 μL and 0.2˜0.26^e6 cells/well. […] Cells were then incubated with 30 μL/well of antibodies diluted in flow buffer at 1000 nM as high dose followed by 9-point dose response including 5-fold dilutions not including 0 (totaling 9 concentrations for each Antibody) for 30 minutes at 4° C. in dark.

[2] = target: T2, canine LEPR-ECD-His (canine); assay: SPR (Biacore T200), antibody captured on Protein A/G chip, His-tagged LEPR-ECD as analyte; summary sentence of Table 3
T2 chain: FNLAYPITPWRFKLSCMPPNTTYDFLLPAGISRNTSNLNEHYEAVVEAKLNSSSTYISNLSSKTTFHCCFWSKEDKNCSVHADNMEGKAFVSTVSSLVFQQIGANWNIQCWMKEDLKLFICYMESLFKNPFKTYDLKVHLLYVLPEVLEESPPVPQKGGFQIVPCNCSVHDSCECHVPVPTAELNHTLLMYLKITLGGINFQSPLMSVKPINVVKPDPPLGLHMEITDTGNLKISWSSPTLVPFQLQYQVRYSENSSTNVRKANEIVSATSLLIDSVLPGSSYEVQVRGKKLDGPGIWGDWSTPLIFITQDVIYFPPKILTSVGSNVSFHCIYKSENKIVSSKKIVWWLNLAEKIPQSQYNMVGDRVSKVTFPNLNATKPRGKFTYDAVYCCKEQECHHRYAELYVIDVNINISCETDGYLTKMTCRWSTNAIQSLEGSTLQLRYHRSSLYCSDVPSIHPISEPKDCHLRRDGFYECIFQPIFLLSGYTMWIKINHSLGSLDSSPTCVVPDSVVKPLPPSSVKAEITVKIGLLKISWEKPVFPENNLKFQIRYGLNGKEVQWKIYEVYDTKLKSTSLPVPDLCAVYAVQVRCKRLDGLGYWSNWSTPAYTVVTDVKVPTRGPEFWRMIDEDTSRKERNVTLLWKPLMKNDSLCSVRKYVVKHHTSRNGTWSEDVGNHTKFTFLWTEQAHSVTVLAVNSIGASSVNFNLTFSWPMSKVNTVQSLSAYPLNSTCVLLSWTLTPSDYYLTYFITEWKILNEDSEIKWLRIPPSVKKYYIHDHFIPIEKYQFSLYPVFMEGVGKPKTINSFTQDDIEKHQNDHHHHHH
Description: His-tagged ECDs were expressed and purified for each species and used for affinity analysis. A Protein A/G chip (Xantec, Cat #PAGHC200M) was utilized in this experiment with HBS-EP +0.01% BSA as running buffer. Antibodies were diluted to 1 μg/mL in running buffer and captured to a single flow cell on the chip surface. Each species of LEPR-ECD was diluted to 1000 nM in running buffer followed by 2-fold serial dilution. Each ligand concentration was injected over all flow cells at 100 L/min for 150 seconds followed by a 600 second dissociation phase. Regeneration was performed by injecting 10 mM glycine pH1.5 for 30 seconds at 10 μL/min. Data were analyzed in Biacore T200 Evaluation Software 3.1 by flow-cell 1 reference subtraction along with 0 nM blank subtraction. Data were fit globally using a “1:1 Binding” binding model to determine the on-rate (kₐ) and off-rate (kd) for each ligand. The affinity (KD) was calculated from the binding kinetics according to the relationship KD=kₐ/kd. Data reported as mean±standard deviation of experimental replicates.

B1: Antibody C (antibody, human IgG1, kappa, L234A L235A, V domains shown)
VH: EVQLLESGGGLVQPGGSLRLSCAASGFTFSSFAMSWVRQAPGKGLEWVSAISGSGGSTYSADSVRGRFTISRDNSKNTLYLQMNSLRAEDTAVYYCAKDQGDWDFLFDYWGQGTLVTVSS
VL: DIQMTQSPSFLSASVGDRVTITCRASQGISSSLAWYQQKPGKAPKLLIYTASTLQSGVPSRFSGSGSGTEFTLTISSLQPEDFATYYCQQLNYYPFSFGQGTKVEIKR
EC50 [1]: 1.33 nM | binding result [2]: binds
